In US20200399381A1 (I MAB BIOPHARMA US, published 2020):
Changes are numbered by the printed parent chain. Blank lines part the entries; values can stand above or below the binder they belong to.

Experiments:
[1] = molecular target: T1, recombinant His-tagged human IFNAR-1-ECD protein (human, UniProt P17181 28-436); assay: ELISA, coated His-tagged IFNAR-1
T1 construct: extracellular domain; the Biacore text says His-tagged human IFNAR-1-ECD; also called His-tagged IFNAR-1; hIFNAR-1 protein; not shown: His tag
T1 sequence (looked up): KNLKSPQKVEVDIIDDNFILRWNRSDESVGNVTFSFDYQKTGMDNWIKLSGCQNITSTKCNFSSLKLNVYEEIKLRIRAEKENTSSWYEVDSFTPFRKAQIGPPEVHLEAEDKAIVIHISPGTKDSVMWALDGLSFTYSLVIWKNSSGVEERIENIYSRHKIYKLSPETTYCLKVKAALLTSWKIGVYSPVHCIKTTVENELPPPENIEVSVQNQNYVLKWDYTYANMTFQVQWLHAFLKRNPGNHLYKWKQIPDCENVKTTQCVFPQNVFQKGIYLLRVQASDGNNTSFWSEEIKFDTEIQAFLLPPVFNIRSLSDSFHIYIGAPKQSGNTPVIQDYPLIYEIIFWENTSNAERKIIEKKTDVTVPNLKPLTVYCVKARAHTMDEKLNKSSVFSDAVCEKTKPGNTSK
Procedure: This example tested the binding properties of the anti-IFNAR-1 mouse antibodies to the human IFNAR-1 proteins by ELISA assay. In short, His-tagged IFNAR-1 was coated at 0.5 μg/ml overnight and then blocked by 5% BSA in PBS. Serial diluted anti-IFNAR-1 antibodies were incubated with the coated antigen for 1 h at room temperature. The resulting plates were washed with PBS/T and incubated with goat anti-mouse IgG-HRP for 1 h at room temperature. The plates were developed with TMB substrate and analyzed by spectrophotometer at OD 450-630 nm.

human IFNAR-1 on cells = molecular target: T2, human IFNAR-1 on cells (human, UniProt P17181 28-557); assay: cell-based or functional assay
T2 sequence (looked up): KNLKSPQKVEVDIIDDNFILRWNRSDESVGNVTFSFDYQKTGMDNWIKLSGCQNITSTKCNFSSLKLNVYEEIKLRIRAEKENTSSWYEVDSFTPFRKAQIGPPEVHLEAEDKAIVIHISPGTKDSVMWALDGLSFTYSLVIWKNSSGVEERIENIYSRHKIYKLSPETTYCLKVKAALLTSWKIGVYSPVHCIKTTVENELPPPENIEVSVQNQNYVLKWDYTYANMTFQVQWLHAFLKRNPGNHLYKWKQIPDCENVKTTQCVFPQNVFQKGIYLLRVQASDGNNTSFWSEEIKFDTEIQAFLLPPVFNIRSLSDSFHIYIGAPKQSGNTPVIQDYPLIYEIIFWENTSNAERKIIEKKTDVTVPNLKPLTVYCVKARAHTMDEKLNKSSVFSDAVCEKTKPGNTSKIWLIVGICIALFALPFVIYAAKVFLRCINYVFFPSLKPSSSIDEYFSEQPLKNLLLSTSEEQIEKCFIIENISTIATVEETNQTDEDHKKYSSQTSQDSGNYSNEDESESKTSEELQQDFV

[2] = molecular target: T3, human IFNAR-1 protein (form not stated) (human, UniProt P17181 28-436, limits assumed); assay: affinity ranking of expressed humanized 8G11 IgGs (method not named)
T3 construct: bispecific ELISA
T3 sequence (looked up): T1 sequence (looked up)

Kd [2]: 0.413 nM
koff [2]: 0.000106 s⁻¹
kon [2]: 256000 M⁻¹ s⁻¹
B6: 8G11 humanized VH3 + VL1 (antibody, V domains shown)
VH: QVQLVQSGAEVVKPGASVKVSCKGSGFNIKDYYMHWVKQAPGQGLEWIGRIDPEDAETKYAPKFQGRVTITADTSTSTVYLELSSLRSEDTAVYYCARGGNFYVMDYWGQGTLVTVSS
VL: DIQLTQSPSFLSASVGDRVTITCKASQNVGTNVVWYQQKPGKAPKLLIYSASYRVSGVPSRFSGSGSGTEFTLTISSLQPEDFATYYCQQKNNYPYTFGQGTKLEIK
notes: Humanized IgG expressed in HEK293; also called VH3 + VL1 (8G11)

Kd [2]: 0.372 nM
koff [2]: 0.000105 s⁻¹
kon [2]: 283000 M⁻¹ s⁻¹
B7: 8G11 humanized VH4 + VL4 (antibody, V domains shown)
VH: B6 VH with V20L, V68A, V79A
VL: B6 VL with L4M, A13T, I21V, A43S, L46V, T74I, L78V, Y87F
notes: Humanized IgG expressed in HEK293; also called VH4 + VL4 (8G11)

Kd [2]: 0.364 nM
koff [2]: 9.65e-05 s⁻¹
kon [2]: 265000 M⁻¹ s⁻¹
B9: 8G11 humanized VH2 + VL3 (antibody, V domains shown)
VH: B6 VH with K38R, I70M, L81M
VL: B6 VL with A13T, A43S, L46V, T74I, L78V, Y87F
notes: Humanized IgG expressed in HEK293; also called VH2 + VL3 (8G11)

Kd [2]: 0.765 nM
koff [2]: 0.000127 s⁻¹
kon [2]: 167000 M⁻¹ s⁻¹
B11: 8G11 humanized VH1 + VL2 (antibody, V domains shown)
VH: B6 VH with V12K, G24A, K38R, I48M, I70M, A72R, L81M
VL: B6 VL with A13T, A43S, L46V, T74I
notes: Humanized IgG expressed in HEK293; also called VH1 + VL2 (8G11)

Kd [2]: 0.865 nM
koff [2]: 0.0002 s⁻¹
kon [2]: 231000 M⁻¹ s⁻¹
B13: 8G11 humanized VH1 + VL3 (antibody, V domains shown)
VH: B6 VH with V12K, G24A, K38R, I48M, I70M, A72R, L81M
VL: B6 VL with A13T, A43S, L46V, T74I, L78V, Y87F
notes: Humanized IgG expressed in HEK293; also called VH1 + VL3 (8G11)

More lines, now with the values behind:

B1: 260H8 (antibody, V domains shown)
VH: EVQLQESGPGLAKPSQTLSLTCSVTGYSITSDYWNWIRKFPGNKLEYMGYISYSGSIYYNPSLKSRISITRDTSKNQYYLQLNSVTNEDTATYYCARSGGMYYFDYWGQGTTLTVSS
VL: DIQMTQSPASLSASVGETVTITCRASGNIHNYLAWYQQKQGKSPQLLVYNAKTLEDGVPSRFSGSGSGTQYSLKINSLQPEDFGSYYCQHFWSIPPTFGSGTKLEIK
notes: Hybridoma-derived monoclonal antibody
EC50 [1]: 0.055 nM
EC50 (nM), inhibition of IFNα2b-induced SEAP reporter in HEK-Blue IFNα/β cells (human IFNAR-1 on cells): 5.07 nM

B2: 268E9 (antibody, V domains shown)
VH: B1 VH with D72A
VL: B1 VL
notes: as for B1
EC50 [1]: 0.088 nM
EC50 (nM), inhibition of IFNα2b-induced SEAP reporter in HEK-Blue IFNα/β cells (human IFNAR-1 on cells): 3.87 nM

B3: 269A7 (antibody, V domains shown)
VH: B1 VH with S56T
VL: B1 VL
notes: as for B1
EC50 [1]: 0.476 nM
EC50 (nM), inhibition of IFNα2b-induced SEAP reporter in HEK-Blue IFNα/β cells (human IFNAR-1 on cells): 6.71 nM

B4: 293H10 (antibody, V domains shown)
VH: B1 VH with S56N, I57T, Y58D, I67F, Y78F, N87T, G99E, Y103F
VL: B1 VL with T20S, Q37H, E55A, I94T
notes: as for B1
EC50 [1]: 0.097 nM
EC50 (nM), inhibition of IFNα2b-induced SEAP reporter in HEK-Blue IFNα/β cells (human IFNAR-1 on cells): 1.28 nM

B5: 8G11 humanized VH3 + VL3 (antibody, V domains shown)
VH: B6 VH
VL: B6 VL with A13T, A43S, L46V, T74I, L78V, Y87F
notes: Humanized IgG expressed in HEK293; also called VH3 + VL3 (8G11)
Kd [2]: 0.364 nM
koff [2]: 0.00011 s⁻¹
kon [2]: 301000 M⁻¹ s⁻¹

B8: 8G11 humanized VH1 + VL4 (antibody, V domains shown)
VH: B6 VH with V12K, G24A, K38R, I48M, I70M, A72R, L81M
VL: B6 VL with L4M, A13T, I21V, A43S, L46V, T74I, L78V, Y87F
notes: Humanized IgG expressed in HEK293; also called VH1 + VL4 (8G11)
Kd [2]: 0.836 nM
koff [2]: 0.000141 s⁻¹
kon [2]: 169000 M⁻¹ s⁻¹

B10: 8G11 humanized VH3 + VL4 (antibody, V domains shown)
VH: B6 VH
VL: B6 VL with L4M, A13T, I21V, A43S, L46V, T74I, L78V, Y87F
notes: Humanized IgG expressed in HEK293; also called VH3 + VL4 (8G11)
Kd [2]: 0.401 nM
koff [2]: 0.000113 s⁻¹
kon [2]: 281000 M⁻¹ s⁻¹

B12: 8G11 humanized VH2 + VL4 (antibody, V domains shown)
VH: B6 VH with K38R, I70M, L81M
VL: B6 VL with L4M, A13T, I21V, A43S, L46V, T74I, L78V, Y87F
notes: Humanized IgG expressed in HEK293; also called VH2 + VL4 (8G11)
Kd [2]: 0.388 nM
koff [2]: 0.000102 s⁻¹
kon [2]: 262000 M⁻¹ s⁻¹

B14: 8G11 humanized VH3 + VL2 (antibody, V domains shown)
VH: B6 VH
VL: B6 VL with A13T, A43S, L46V, T74I
notes: Humanized IgG expressed in HEK293; also called VH3 + VL2 (8G11)
Kd [2]: 0.389 nM
koff [2]: 0.000111 s⁻¹
kon [2]: 284000 M⁻¹ s⁻¹
